The results in this text go back to patent US10758526B2, “Combination therapies using agents that target tumor-associated stroma or tumor cells and other pathways” (BIOMED VALLEY DISCOVERIES, INC., priority 2014, dated 2020).

The nature of data set [1]: Pharmacokinetics of TEM8 antibodies in mouse, single dose. The format is in vivo. From the text:
(§1) Tables 8 and 9 show pharmacokinetic properties of TEM8 antibodies according to the present invention in mouse for single dose (Table 8) and multiple dose (Table 9) treatments.

The next data set concerns the target T1, mTEM8-Fc (Mus musculus, UniProt Q9CZ52).
T1 construct: Fc
T1 sequence (Q9CZ52 31-319 limits assumed): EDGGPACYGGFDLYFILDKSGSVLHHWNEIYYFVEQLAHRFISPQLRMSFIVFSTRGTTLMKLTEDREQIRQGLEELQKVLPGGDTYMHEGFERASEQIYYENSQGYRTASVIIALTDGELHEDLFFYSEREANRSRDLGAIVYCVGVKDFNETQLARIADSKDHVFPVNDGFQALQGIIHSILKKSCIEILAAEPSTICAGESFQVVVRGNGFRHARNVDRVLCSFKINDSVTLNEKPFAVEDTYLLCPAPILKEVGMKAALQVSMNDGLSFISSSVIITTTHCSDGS
The data set is described as follows: Biocore affinity measurement of anti-TEM8 Fabs, mTEM8-Fc. It counts as binding.

The nature of data set [2]: Pharmacokinetics of TEM8 antibodies in mouse, multiple dose. The format is in vivo.
Excerpt: as §1

A further data set deals with 3T3 fibroblasts. Put plainly: Contractility of 3T3 fibroblasts in the presence of TGFb-1. The format is cell-based. To be noted: in vitro. As for the experimental part: 3T3 cells were cultured and contractility in the presence of TGFb-1 was measured in control or M825 exposed cells. […] Contractile forces are thought to contribute to increased cancer cell invasion.

The next data set concerns the target T2, hTEM8-AP (Homo sapiens, UniProt Q9H6X2).
T2 sequence (Q9H6X2 33-321 limits assumed): T1 sequence (Q9CZ52 31-319 limits assumed) with R40K, S104R, A241S
Put plainly: Biocore affinity measurement of anti-TEM8 Fabs, hTEM8-AP. It counts as binding.

In data set [3] the test system is OVCAR3 ovarian cancer model. The data set is described as follows: M825 and M825-MMAE in OVCAR3 ovarian cancer model. The settings on record: 0.2 mg/kg, equivalent to maximum MMAE in the 10 mg/kg ADC group. The format is in vivo, mice. As for the experimental part:
Treatment initiated when tumor volume reached approximately 120 mm^3. M825 was given i.v. at 10 mg/kg and M825-MMAE was given i.v. at 1, 3, or 10 mg/kg, 2 times per week for 3.5 weeks. […] The 10 mg/kg ADC group was redosed on Day 56, 2 times per week.

Positions count from the first letter of the chain named. Square brackets hold non-standard residues; d marks the D form. Peptide text beside a SMILES is read from it. * marks the point of attachment. Dolaproine = CO[C@@H]([C@@H]1CCCN1)[C@@H](C)C(=O)O; Dil = CC[C@H](C)[C@H](NC)[C@@H](CC(=O)O)OC; X1 = C[C@@H](N*)[C@@H](O)c1ccccc1; NMeV = CN[C@H](C(=O)O)C(C)C

In data set [1] (5 mg/kg), “M825: TEM8 monoclonal antibody (hIgG1), VH SEQ ID NO:1 and VL SEQ ID NO:2” returned an AUCI of 1310.519 µg·h/mL, an AUCT of 1310.222 µg·h/mL, a CLF of 3.82 mL/h/kg and a CMAX of 46800 ng/mL. In data set [1] (5 mg/kg), this molecule had an HALF of 6.03 h, a KEL of 0.1149 h⁻¹, a TMAX of 3 h and a VZF of 0.03319 L/kg. Moreover, in data set [1] (15 mg/kg), the AUCI turned out to be 9239.202 µg·h/mL, the AUCT is 8991.767 µg·h/mL, the CLF was 1.62 mL/h/kg and the CMAX came out at 144000 ng/mL. Besides, in data set [1] (15 mg/kg), the HALF was found to be 23.77 h, the KEL was 0.0292 h⁻¹, the TMAX was determined as 3 h and the VZF was determined as 0.05566 L/kg. Further, in the data set with mTEM8-Fc, the ka amounted to 1.7e+06 M⁻¹ s⁻¹ and the kd was found to be 8.942e-05 s⁻¹. Also, in data set [2] (5 mg/kg), the AUCI came to 1408.345 µg·h/mL, the AUCT amounted to 1408.201 µg·h/mL, the CLF stood at 3.55 mL/h/kg and the CMAX is 54300 ng/mL. Further, in data set [2] (5 mg/kg), the HALF amounted to 9.10 h, the KEL worked out at 0.0762 h⁻¹, the TMAX came to 3 h and the VZF is 0.04661 L/kg. In addition, in data set [2] (15 mg/kg), the AUCI turned out to be 21649.446 µg·h/mL, the AUCT came out at 21648.879 µg·h/mL, the CLF is 0.69 mL/h/kg and the CMAX turned out to be 314000 ng/mL. In data set [2] (15 mg/kg), the HALF was found to be 17.05 h, the KEL amounted to 0.0406 h⁻¹, the TMAX was found to be 3 h and the VZF came to 0.01705 L/kg. Besides, the “contractility of activated 3T3 fibroblasts” value in the data set on 3T3 fibroblasts was “block the contractility”. In the data set with hTEM8-AP, this molecule displayed a ka of 3.05e+06 M⁻¹ s⁻¹ and a kd of 0.0001802 s⁻¹.
Take `CC[C@H](C)[C@@H]([C@@H](CC(=O)N1CCC[C@H]1[C@H](OC)[C@@H](C)C(=O)N[C@H](C)[C@@H](O)c1ccccc1)OC)N(C)C(=O)[C@@H](NC(=O)[C@@H](NC)C(C)C)C(C)C` [MMAE, monomethylauristatin (MMAE), reference compound] (H-[NMeV]V[Dil][Dolaproine]-X1): in data set [3], the “effect on tumor growth” value is on record as “No effect”.

B1: M863: TEM8 monoclonal antibody (hIgG1), VH SEQ ID NO:7 and VL SEQ ID NO:8 (antibody, V domains shown)
VH: EVQLVETGAEVKKPGASVKVSCKASGYTFTGYYMHWVRQAPGQGLEWMGWINPTSGSTNYAQKFQGRVTMTRDTSISTAYMELSGLRSDDTAVYYCVRDPGSPKWLAFDPWGQGTLVTVSS
VL: DIQLTQSPSSLSASVGDRVTITCRASRAISRYLNWYQQKPGKAPKLLIYAASSLQSGVSSRFSGSGSGTEFTLTISSLQPEDFATYFCQQTYSPPITFGQGTRLEIKR
modifications: TEM863 mAb VH; TEM863 mAb VL
In data set [1] (5 mg/kg), B1 yielded an AUCI of 1330.847 µg·h/mL, an AUCT of 1330.742 µg·h/mL, a CLF of 3.76 mL/h/kg and a CMAX of 51300 ng/mL. In addition, in data set [1] (5 mg/kg), the HALF is 8.59 h, the KEL stood at 0.0807 h⁻¹, the TMAX was determined as 3 h and the VZF was determined as 0.04656 L/kg. Besides, in data set [1] (15 mg/kg), the AUCT worked out at 10721.535 µg·h/mL, the CMAX came out at 355000 ng/mL and the TMAX stood at 3 h. Besides, in data set [2] (5 mg/kg), the AUCI amounted to 1425.735 µg·h/mL, the AUCT came to 1425.565 µg·h/mL, the CLF turned out to be 3.51 mL/h/kg and the CMAX is reported as 58600 ng/mL. Besides, in data set [2] (5 mg/kg), the HALF worked out at 14.29 h, the KEL is 0.0485 h⁻¹, the TMAX was determined as 3 h and the VZF stood at 0.07228 L/kg. In data set [2] (15 mg/kg), the AUCI worked out at 7272.672 µg·h/mL, the AUCT stood at 7271.7 µg·h/mL, the CLF stood at 2.06 mL/h/kg and the CMAX came out at 147000 ng/mL. In data set [2] (15 mg/kg), this molecule displayed an HALF of 12.64 h, a KEL of 0.0549 h⁻¹, a TMAX of 3 h and a VZF of 0.0376 L/kg.
